According to US20210180049A1 (CHUGAI SEIYAKU KABUSHIKI KAISHA, priority 2013, published 2021):

Key:
[1] = biological target: T1, human IL-6 receptor (hIL-6R) (Homo sapiens, UniProt P08887); assay: phage ELISA for hIL-6R binding in the presence/absence of small molecule cocktail (SC); details: absorbance at 450 nm
T1 sequence (P08887 20-357 limits assumed): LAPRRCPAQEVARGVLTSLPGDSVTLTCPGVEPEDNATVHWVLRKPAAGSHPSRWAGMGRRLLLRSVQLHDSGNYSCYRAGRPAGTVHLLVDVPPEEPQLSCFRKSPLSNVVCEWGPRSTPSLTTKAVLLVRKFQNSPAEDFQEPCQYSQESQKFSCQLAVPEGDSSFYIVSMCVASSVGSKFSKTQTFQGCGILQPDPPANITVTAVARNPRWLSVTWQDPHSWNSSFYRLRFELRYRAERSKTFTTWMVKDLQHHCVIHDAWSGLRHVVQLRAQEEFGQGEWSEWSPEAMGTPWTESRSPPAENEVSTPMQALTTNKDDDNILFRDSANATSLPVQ
Protocol: From a single colony of E. coli obtained in (6-1), a phage-containing culture supernatant was collected according to a conventional method (Methods Mol. Biol. (2002) 178, 133-145). […] A StreptaWell 96 microtiter plate (Roche) was coated overnight with 100 μL of TBS containing biotin-labeled hIL-6R. […] After removing 2% skim milk/TBS, purified phages were added to each well of the plate, and the plate was left still at room temperature for one hour to allow antibody-presenting phages to bind to biotin-labeled hIL-6R present in each well in the presence/absence of SC. Each well was washed with TBST or SC/TBST, and HRP-conjugated anti-M13 antibody (Amersham Pharmacia Biotech) diluted with TBS or SC/TBS was added thereto, and the plate was incubated for one hour. After washing with TBST or SC/TBST, the chromogenic reaction of TMB single solution (ZYMED) added in each well was terminated by adding sulfuric acid. Then, the color development was measured by absorbance at 450 nm.

[2] = biological target: T1, human IL-6 receptor (hIL-6R); assay: IgG ELISA for hIL-6R binding in the presence of amino acids and amino acid metabolites (Table 14); details: IgG 2.5 μg/mL
Protocol: Meanwhile, each of the amino acids and metabolites thereof were appropriately prepared at the concentrations shown in Table 14 using the buffers shown in Table 13. The antigen used was biotin-labeled hIL-6R.
First, a StreptaWell 96 microtiter plate (Roche) was coated with 100 μL of PBS containing biotin-labeled antigens at room temperature for one hour or longer. […] 100 μL of each of the purified IgGs prepared at 2.5 μg/mL using Sample Buffer containing small molecules at the final concentrations shown in Table 14 were added to each well, and the plate was let still at room temperature for one hour to allow each IgG to bind to the antigen present in each well. After washing with Wash Buffer containing amino acids and amino acid metabolites at the final concentrations shown in Table 14, HRP-conjugated anti-human IgG antibody (BIOSOURCE) diluted with Sample Buffer containing amino acids and amino acid metabolites was added to each well, and the plate was incubated for one hour. After washing with Wash Buffer containing the respective amino acids and amino acid metabolites, the chromogenic reaction of TMB single solution (ZYMED) added in each well was terminated by adding sulfuric acid. Then, the color development was measured by absorbance at 450 nm.

[3] = biological target: T1, human IL-6 receptor (hIL-6R); assay: SPR (Biacore T200) of 6RNMSC1-2_F02 with hIL-6R with or without kynurenine or ATP; format: binding; details: 1 μmol/L hIL-6R
Description: Biacore T200 (GE Healthcare) was used to analyze the interaction of antigen-antibody reaction between 6RNMSC1-2_F02 and human IL-6 receptor (hIL-6R). An appropriate amount of protein A (Invitrogen) was immobilized onto Sensor chip CM5 (GE Healthcare) by the amine coupling method. The antibody of interest was captured onto the sensor chip, and the antigen hIL-6R was allowed to interact. The running buffer used was 20 mmol/L ACES, 150 mmol/L NaCl, 0.05% (w/v) Tween 20, pH 7.4. The interaction with the antigen hIL-6R was measured at 25° C. hIL-6R was diluted with the running buffer, the running buffer containing 100 μmol/L kynurenine, or, as a control, the running buffer containing 10 mmol/L ATP.
Diluted hIL-6R solutions and the running buffer which is the blank were injected at a flow rate of 10 μL/min for one minute and hIL-6R was allowed to interact with 6RNMSC1-2_F02 captured on the sensor chip. Then, the running buffer was run at a flow rate of 10 μL/min for one minute to observe the dissociation of hIL-6R from the antibody. […] The dissociation constant KD (M) of 6RNMSC1-2_F02 for hIL-6R was calculated from the kinetic parameters, the association rate constant ka (1/Ms) and the dissociation rate constant kd (l/s), calculated based on the sensorgrams obtained by the measurements. Each parameter was calculated using Biacore T200 Evaluation Software (GE Healthcare).

hIL-6R = biological target: T2, hIL-6R (Homo sapiens, UniProt P08887); format: binding; details: Octet
T2 sequence (P08887 20-357): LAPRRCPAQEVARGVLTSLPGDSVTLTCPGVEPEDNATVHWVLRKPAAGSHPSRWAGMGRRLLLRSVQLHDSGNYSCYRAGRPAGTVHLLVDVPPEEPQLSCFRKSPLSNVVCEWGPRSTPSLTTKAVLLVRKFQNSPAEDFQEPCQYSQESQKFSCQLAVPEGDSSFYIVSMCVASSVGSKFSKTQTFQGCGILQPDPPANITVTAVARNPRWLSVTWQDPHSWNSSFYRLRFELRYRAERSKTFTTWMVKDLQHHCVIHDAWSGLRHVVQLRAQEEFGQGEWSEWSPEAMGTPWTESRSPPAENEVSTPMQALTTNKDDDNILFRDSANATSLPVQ
Protocol: Octet ([…]) was used to assess the effect of various small molecules on the antigen-antibody reaction between hIL-6R and the kynurenine-switch antibody 6RNMSC1-2_F02 obtained from a library. A total of eight molecules shown in Example (7-5), which are kynurenine and derivatives thereof, were evaluated as small molecules. The assay buffer used was TBS, pH 7.4, and measurements were carried out at 30° C. Biotinylated hIL-6R was immobilized onto a streptavidin sensor chip, the antibody was allowed to interact, and changes in the amount of its binding were observed. The antibody was diluted using the assay buffer or the assay buffer to which either one of the small molecules has been added. The final concentration of each small molecule was adjusted to 100 uM, while the final antibody concentration was adjusted to 10 μg/mL.

Protocol for Tm measurement by DSC: Measurement by DSC was carried out by a method known to those skilled in the art.
DSC measurement was carried out by a method known to those skilled in the art.

B1: 6RNMSC1-2_F02: antibody binding hIL-6R in the presence of kynurenine; heavy chain SEQ ID NO: 32, light chain SEQ ID NO: 33 (antibody, listed as Homo sapiens, V domains shown)
VH: QVQLVQSGAEVKKPGSSVKVSCKASGGTFSSYAISWVRQAPGQGLEWMGGIIPIFGTANYAQKFQGRVTITADESTSTAYMELSSLRSEDTAVYYCARDAPVVARPRGAFDIWGQGTMVTVSS
VL: DIVMTQTPLSSPVTLGQPASISCRSSQSLVHSDGNTYLSWLQQRPGQPPRLLIHEISNRFSGVPDRFSGSGAGTNFTLKISRVEAEDVGVYYCMQATQFPRTFGQGTKVEIK
**Q.** Which results are given for B1?
**A.** binding activity to the antigen hIL-6R in the presence of a small molecule mixture [1]: having binding activity; absorbance under condition 5 (3-hydroxy kynurenine solution) ([2]; 3-Hydroxykynurenine 1 mM): high absorbance similarly to that under condition 1; absorbance under condition 7 (no small molecule) compared to condition 1 (kynurenine solution) [2]: significantly lower; hIL-6R binding in the presence of tryptophan ([2]; Tryptophan 1 mM): does not bind to the antigen hIL-6R; hIL-6R binding in the absence of kynurenine [3]: not detected; hIL-6R binding in the presence of kynurenine ([3]; 100 μmol/L kynurenine): bound to hIL-6R; hIL-6R binding in the presence of 3-hydroxy-DL-kynurenine (hIL-6R; 100 uM small molecule): binding to hIL-6R was observed; hIL-6R binding in the presence of RO0635389-000-001 (hIL-6R; 100 uM small molecule): binding to hIL-6R was observed; hIL-6R binding in the presence of RO0635390-000-001 (hIL-6R; 100 uM small molecule): binding to hIL-6R was observed; hIL-6R binding in the absence of kynurenine (hIL-6R; 30° C., antibody 10 μg/mL): not observed; hIL-6R binding in the presence of 100 uM kynurenine (hIL-6R; 30° C., antibody 10 μg/mL): bound to hIL-6R; Tm (Tm measurement by DSC): 82.9 °C
